Earlier results, collected in PMC11932923.

Molecular target: IL-36R (Homo sapiens) (UniProt Q9HB29)
Test: Biacore SPR

Sequence of UniProt Q9HB29 (Q9HB29 20-575): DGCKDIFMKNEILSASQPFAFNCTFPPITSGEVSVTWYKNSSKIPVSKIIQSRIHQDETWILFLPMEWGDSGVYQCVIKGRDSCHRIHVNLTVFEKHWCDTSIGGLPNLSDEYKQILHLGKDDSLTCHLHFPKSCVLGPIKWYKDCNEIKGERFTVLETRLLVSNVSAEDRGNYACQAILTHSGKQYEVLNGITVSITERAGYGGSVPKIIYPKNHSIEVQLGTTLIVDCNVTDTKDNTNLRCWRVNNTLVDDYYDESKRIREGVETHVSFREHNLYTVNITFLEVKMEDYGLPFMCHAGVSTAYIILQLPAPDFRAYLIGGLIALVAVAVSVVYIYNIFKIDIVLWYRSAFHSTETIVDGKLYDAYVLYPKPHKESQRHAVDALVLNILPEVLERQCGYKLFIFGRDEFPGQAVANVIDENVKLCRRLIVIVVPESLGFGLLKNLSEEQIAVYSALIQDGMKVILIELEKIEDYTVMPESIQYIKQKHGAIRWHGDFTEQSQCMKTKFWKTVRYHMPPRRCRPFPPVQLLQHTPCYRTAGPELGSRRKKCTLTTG

## IL-36β (N-terminally truncated) (from UniProt Q9NZH7)
  Kd: 7 pM
